B1: SlATG13b promoter probe (dsDNA)
DNA 1: TTTCTTTGTTTCACACGTTCTTTTTACTTC
DNA 2: GAAGTAAAAAGAACGTGTGAAACAAAGAAA
B2: SlATG18h mutant probe (G/E-box to TTTTTTTT) (dsDNA)
DNA 1: ATTCCATATATTTTTTTTCTCCGTTTCATC
DNA 2: GATGAAACGGAGAAAAAAAATATATGGAAT
B3: SlATG13a mutant probe (G/E-box to TTTTTTTT) (dsDNA)
DNA 1: GAGATTTTTTTTTATGTTTTTTTTTAAATT
DNA 2: AATTTAAAAAAAAACATAAAAAAAAATCTC
B4: SlATG18a mutant probe (G/E-box to TTTTTTTT) (dsDNA)
DNA 1: GGATTGGATCTTTTTTTTTCATGTAGGATA
DNA 2: TATCCTACATGAAAAAAAAAGATCCAATCC
B5: SlATG18h promoter probe (dsDNA)
DNA 1: ATTCCATATAACACATGTCTCCGTTTCATC
DNA 2: GATGAAACGGAGACATGTGTTATATGGAAT
B6: SlATG18a promoter probe (dsDNA)
DNA 1: GGATTGGATCTACACGTGGCATGTAGGATA
DNA 2: TATCCTACATGCCACGTGTAGATCCAATCC
B7: SlATG13b mutant probe (G/E-box to TTTTTTTT) (dsDNA)
DNA 1: TTTCTTTGTTTCTTTTTTTTTTTTTACTTC
DNA 2: GAAGTAAAAAAAAAAAAAGAAACAAAGAAA
B8: SlATG13a promoter probe (dsDNA)
DNA 1: GAGAACACTTGCTATGTCACGTGCTAAATT
DNA 2: AATTTAGCACGTGACATAGCAAGTGTTCTC

Experiments:
MBP-SlMYC2 [1] = target: T1, MBP-SlMYC2 (Solanum lycopersicum, UniProt A0A3Q7HRZ6 1-689); assay: EMSA; Chemiluminescent EMSA kit (Beyotime); buffer, salt, pH and temperature not stated; details: protein: recombinant; tags: N-terminal MBP; chain copies: 2; label: biotin
MBP-SlMYC2 [2] = target: T1, MBP-SlMYC2; assay: competition; unlabeled mutant competitor vs SlATG18h probe; Chemiluminescent EMSA kit (Beyotime); buffer, salt, pH and temperature not stated; details: protein: recombinant; tags: N-terminal MBP; chain copies: 2
MBP-SlMYC2 [3] = target: T1, MBP-SlMYC2; assay: competition; unlabeled mutant competitor vs SlATG13a probe; Chemiluminescent EMSA kit (Beyotime); buffer, salt, pH and temperature not stated; details: protein: recombinant; tags: N-terminal MBP; chain copies: 2
MBP-SlMYC2 [4] = target: T1, MBP-SlMYC2; assay: competition; unlabeled mutant competitor vs SlATG18a probe; Chemiluminescent EMSA kit (Beyotime); buffer, salt, pH and temperature not stated; details: protein: recombinant; tags: N-terminal MBP; chain copies: 2
MBP-SlMYC2 [5] = target: T1, MBP-SlMYC2; assay: competition; unlabeled mutant competitor vs SlATG13b probe; Chemiluminescent EMSA kit (Beyotime); buffer, salt, pH and temperature not stated; details: protein: recombinant; tags: N-terminal MBP; chain copies: 2

T1 sequence (A0A3Q7HRZ6 whole entry): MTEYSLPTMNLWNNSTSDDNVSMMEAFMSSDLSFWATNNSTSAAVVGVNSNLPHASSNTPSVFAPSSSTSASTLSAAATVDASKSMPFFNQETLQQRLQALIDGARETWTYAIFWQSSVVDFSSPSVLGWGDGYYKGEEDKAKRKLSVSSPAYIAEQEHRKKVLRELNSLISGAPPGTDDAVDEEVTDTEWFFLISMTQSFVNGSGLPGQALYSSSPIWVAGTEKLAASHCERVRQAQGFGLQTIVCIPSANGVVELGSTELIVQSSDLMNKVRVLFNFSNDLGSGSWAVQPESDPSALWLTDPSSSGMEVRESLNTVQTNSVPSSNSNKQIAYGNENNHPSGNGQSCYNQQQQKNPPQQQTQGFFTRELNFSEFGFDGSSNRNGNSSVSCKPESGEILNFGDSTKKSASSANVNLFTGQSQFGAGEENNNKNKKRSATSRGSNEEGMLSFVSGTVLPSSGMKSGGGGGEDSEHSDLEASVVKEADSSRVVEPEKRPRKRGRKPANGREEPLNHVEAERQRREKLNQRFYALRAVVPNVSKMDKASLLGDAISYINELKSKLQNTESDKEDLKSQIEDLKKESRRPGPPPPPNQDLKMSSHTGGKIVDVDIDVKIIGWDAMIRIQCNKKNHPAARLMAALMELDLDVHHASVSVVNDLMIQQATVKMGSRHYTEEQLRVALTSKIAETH

| Binder | binding result (MBP-SlMYC2 [1]) | other results |
| --- | --- | --- |
| B1 | binds | – |
| B2 | – | binding result (MBP-SlMYC2 [2]): no binding |
| B3 | – | binding result (MBP-SlMYC2 [3]): no binding |
| B4 | – | binding result (MBP-SlMYC2 [4]): no binding |
| B5 | binds | – |
| B6 | binds | – |
| B7 | – | binding result (MBP-SlMYC2 [5]): no binding |
| B8 | binds | – |

Reference: publication PMC10031729, “Interaction of methionine sulfoxide reductase B5 with SlMYC2 stimulates the transcription of MeJA-mediated autophagy-related genes in tomato fruit”
